Target: TetR(B) (UniProt P04483 1-207)
Assay: cytometric bead binding assay

Sequence of TetR(B) (P04483 whole entry): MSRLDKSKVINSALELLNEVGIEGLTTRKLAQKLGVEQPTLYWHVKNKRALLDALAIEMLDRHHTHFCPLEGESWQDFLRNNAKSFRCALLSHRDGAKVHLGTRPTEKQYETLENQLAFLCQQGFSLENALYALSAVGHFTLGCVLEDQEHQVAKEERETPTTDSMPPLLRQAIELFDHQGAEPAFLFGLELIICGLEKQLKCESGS

B1: 5-1.2m2 (structured_RNA)
RNA: GGAUCCAGGCAGUGUAAGGUCGAUACGGACGGAAUGUGAUGGCCUGGAUCCAAA
Does B1 bind?
Result: no binding

Reference: paper PMC3351163
